The values below come from publication PMC4243950, “Characterization of the accessory protein ClpT1 from Arabidopsis thaliana: oligomerization status and interaction with Hsp100 chaperones” (BMC Plant Biology, 2014).

Data set [1] addresses T1, ClpC2 (Arabidopsis thaliana, UniProt Q9SXJ7).
T1 construct: Hsp100 chaperones can assemble into hexamers
T1 sequence (Q9SXJ7 46-952): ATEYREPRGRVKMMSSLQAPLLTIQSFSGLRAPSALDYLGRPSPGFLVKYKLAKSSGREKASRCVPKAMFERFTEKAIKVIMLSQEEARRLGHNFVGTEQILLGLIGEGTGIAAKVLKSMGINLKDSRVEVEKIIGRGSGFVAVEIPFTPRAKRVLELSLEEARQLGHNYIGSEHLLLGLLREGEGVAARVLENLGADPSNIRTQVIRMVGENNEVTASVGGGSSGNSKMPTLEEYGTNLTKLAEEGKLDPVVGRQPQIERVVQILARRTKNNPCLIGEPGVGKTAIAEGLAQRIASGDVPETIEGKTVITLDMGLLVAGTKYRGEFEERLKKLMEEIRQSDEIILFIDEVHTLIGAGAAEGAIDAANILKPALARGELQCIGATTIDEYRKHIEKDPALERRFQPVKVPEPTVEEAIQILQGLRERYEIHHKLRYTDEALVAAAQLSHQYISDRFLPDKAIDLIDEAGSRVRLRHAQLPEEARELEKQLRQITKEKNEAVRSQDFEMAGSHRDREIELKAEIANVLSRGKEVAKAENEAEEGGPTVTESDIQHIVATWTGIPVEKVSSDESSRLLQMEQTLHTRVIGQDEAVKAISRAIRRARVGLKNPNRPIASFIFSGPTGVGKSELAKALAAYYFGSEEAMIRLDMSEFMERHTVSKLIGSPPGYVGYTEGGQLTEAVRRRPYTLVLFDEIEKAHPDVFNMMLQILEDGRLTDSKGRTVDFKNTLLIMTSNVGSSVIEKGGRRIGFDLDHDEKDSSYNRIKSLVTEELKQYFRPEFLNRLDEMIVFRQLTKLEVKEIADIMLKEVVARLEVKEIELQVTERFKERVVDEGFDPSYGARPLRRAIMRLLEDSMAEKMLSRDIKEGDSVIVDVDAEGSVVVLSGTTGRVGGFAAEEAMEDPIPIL
The data set is described as follows: ATPase, inorganic phosphate release, Malachite green. Conditions: ClpC2 0.5 uM; basal activity without ClpT1. The data set is classed as biochemical.

The target of data set [2] is ClpD (recombinant chloroplastic Hsp100 chaperone from Arabidopsis) (Arabidopsis thaliana) (UniProt P42762).
Data set [3] has the same target. This is another data set of the same source.
Data set [4] concerns the target ClpT1 (recombinant mature ClpT1 from Arabidopsis thaliana, His-tag removed) (Arabidopsis thaliana) (UniProt Q93WL3). Put plainly: SEC; 6-fold concentrated sample and 10-fold diluted sample of ClpT1 injected; data not shown.
Data set [5] has the same target. Put plainly: SEC; the small dimer peak of the first run collected and reinjected into the column (second SEC step). In general terms: Size exclusion chromatography separates by hydrodynamic size, large species first.
For data set [6] the target is unchanged. Put plainly: SEC; purified ClpT1 on Superdex 75 10/300 GL, 0.5 mL/min, 50 mM Tris-HCl pH 8.0, 100 mM NaCl; monomer and dimer peaks integrated.
For data set [7] the target is unchanged. Put plainly: cross-linking; EGS at 10, 20, 30 and 50-fold molar excess, 25 μM protein, 50 mM Hepes pH 7.5, 100 mM NaCl, 30 min at room temperature; SDS-PAGE with Coomassie staining.
Data set [8] has as its target ClpC2 (recombinant chloroplastic Hsp100 chaperone from Arabidopsis) (Arabidopsis thaliana) (UniProt Q9SXJ7). The data set is described as follows: ultrafiltration (retention by a 50 kDa cut-off membrane); ClpC2 or ClpD with ClpT1 or GFP, 1.3 μM each, 50 mM Tris-HCl pH 8.0, 150 mM NaCl, 10 mM MgCl2, 5 mM ATP, 10 min at 25°C; Vivaspin 500, 30 s at 11,500 x g; permeate and retentate on SDS-PAGE, densitometry.

Data set [9] deals with ClpD (recombinant chloroplastic Hsp100 chaperone from Arabidopsis) (Arabidopsis thaliana) (UniProt P42762). Described as above.
In data set [10] the target is glutathione S-transferase. The data set is described as follows: cross-linking; EGS at 10, 20, 30 and 50-fold molar excess, 25 μM protein, 50 mM Hepes pH 7.5, 100 mM NaCl, 30 min at room temperature; SDS-PAGE with Coomassie staining.
Substrate in data set [11]: Nc1ncnc2c1ncn2[C@@H]1O[C@H](COP(=O)(O)OP(=O)(O)OP(=O)(O)O)[C@@H](O)[C@H]1O
The data set is described as follows: ATPase, inorganic phosphate release, Malachite green; Michaelis-Menten fit. The data set is classed as biochemical, Arabidopsis thaliana. To be noted: without ClpT1; ClpD 0.5 uM; ATP varied 0-12 mM, complete saturation not reached (extrapolated).

Turning to `Nc1ncnc2c1ncn2[C@@H]1O[C@H](COP(=O)(O)OP(=O)(O)OP(=O)(O)O)[C@@H](O)[C@H]1O` [ATP], the specific activity entry in data set [1] is “Both chaperones have a basal ATPase activity”.

With “ClpT1 (recombinant mature ClpT1 from Arabidopsis thaliana, His-tag removed) (from UniProt Q93WL3 65-238) (natural protein)”, the ATPase activity of ClpD (Malachite green), ClpT1:ClpD molar ratios from approximately 0.15:1 to 6:1; activation over the basal activity, back to the basal value at 6:1 in data set [2] is more than 50%. Also, the Vmax of the ClpD ATPase in the presence of ClpT1 at a 1:1 molar ratio (0.19 nmol/(min × μg protein) without ClpT1) (nmol/(min × μg protein)) in data set [3] worked out at 0.43. In addition, in [4], the percent dimer compared to the monomer species was less than 5%. Besides, the percent of the total protein in the dimer peak after reinjection of the dimer peak in data set [5] is more than 92%. Further, the percent of the total protein in the dimer peak in [6] is less than 5%. The stoichiometry N in [6] and in data set [7] was 2 throughout. In addition, the percent of the total protein cross-linked as dimer at the highest EGS concentration in data set [7] is 60%. The percent of ClpT1 kept in the retentate in [8] and in [9] was more than 75% throughout.

glutathione S-transferase (enzyme): in data set [10], the stoichiometry N stood at 2.

B1: ClpD (Arabidopsis thaliana) (protein)
chain: AIIFSQKEAKSLGKDMVYTQHLLLGLIAEDRDPQGFLGSGITIDKAREAVWSIWDEANSDSKQEEASSTSYSKSTDMPFSISTKRVFEAAVEYSRTMDCQYIAPEHIAVGLFTVDDGSAGRVLKRLGANMNLLTAAALTRLKGEIAKDGREPSSSSKGSFESPPSGRIAGSGPGGKKAKNVLEQFCVDLTARASEGLIDPVIGREKEVQRVIQILCRRTKNNPILLGEAGVGKTAIAEGLAISIAEASAPGFLLTKRIMSLDIGLLMAGAKERGELEARVTALISEVKKSGKVILFIDEVHTLIGSGTVGRGNKGSGLDIANLLKPSLGRGELQCIASTTLDEFRSQFEKDKALARRFQPVLINEPSEEDAVKILLGLREKYEAHHNCKYTMEAIDAAVYLSSRYIADRFLPDKAIDLIDEAGSRARIEAFRKKKEDAICILSKPPNDYWQEIKTVQAMHEVVLSSRQKQDDGDAISDESGELVEESSLPPAAGDDEPILVGPDDIAAVASVWSGIPVQQITADERMLLMSLEDQLRGRVVGQDEAVAAISRAVKRSRVGLKDPDRPIAAMLFCGPTGVGKTELTKALAANYFGSEESMLRLDMSEYMERHTVSKLIGSPPGYVGFEEGGMLTEAIRRRPFTVVLFDEIEKAHPDIFNILLQLFEDGHLTDSQGRRVSFKNALIIMTSNVGSLAIAKGRHGSIGFILDDDEEAASYTGMKALVVEELKNYFRPELLNRIDEIVIFRQLEKAQMMEILNLMLQDLKSRLVALGVGLEVSEPVKELICKQGYDPAYGARPLRRTVTEIVEDPLSEAFLAGSFKPGDTAFVVLDDTGNPSVRTKPDSSTIRVTDKTSIA
notes: Hsp100 chaperones can assemble into hexamers
As for B1, the Km in [11] was 19.1 mM.

What is called stoichiometry N is a count of units in the complex or per binding partner. What is called Km is the concentration of substrate that gives half-maximal velocity.
